Where a chain is given by its changes, count along the chain named. In names and notes the source's numbering stands.
B1: A432Q: bx9 SEQ ID NO:1 mutant (protein)
chain: MASSRTGAGAGGRVVVFPFPFQGHFNPVMRLARALHARGLAITVFHSGALDPADYPADYRFVPVTVEADPKLLASEDIAAIVTTLNASCDAPFRARLSALLAAEGRDSVRCVFTDVSWNAVLTASSDLGVPALGMMTASAASLRDYMAYRTLIDKGYLPVKEERKEDPVPELPPYLVKDLLRVDTSDLEEFAELLARTVTAARRASGLIFNTFPLIETDTLAEIHKALSVPVFAVAPLNKLVPTATASLHGVVQADRGCLQWLDTQQPGSVLYVSFGSMAAMDPHEFVELAWGLADSKRPFVWVVRPNLIRGFESGALPDGVEDEVRGRGIVVAWAPQEEVLAHPAVGGFLTHNGWNSTVEAISEGVPMVCCPRHGDQFGNMRYVCDVWKVGTELVGEQLERGQVKAAIDRLFGTKEGEEIKERMKEFKIAQAKGIGIGVDVDETASPRTDLTDLVDLIKSF
modifications: Zea mays
B2: A432T: bx9 SEQ ID NO:1 mutant (protein)
chain: B1 chain with Q432T
modifications: Zea mays
B3: E339A (protein)
chain: B1 chain with M279F, E339A, H375Y, Q432A
modifications: C-terminal His tag; Zea mays
B4: F313M: additional mutation in SEQ ID No: 17 (protein)
chain: B1 chain with S117V, M279F, F313M, A334K, Q432A
modifications: Mutated Zea mays Bx9 protein sequence
B5: P214D: additional mutation in SEQ ID No: 17 (protein)
chain: B1 chain with S117V, P214D, M279F, A334K, Q432A
modifications: Mutated Zea mays Bx9 protein sequence
B6: W303L: additional mutation in SEQ ID No: 17 (protein)
chain: B1 chain with S117V, M279F, W303L, A334K, Q432A
modifications: Mutated Zea mays Bx9 protein sequence
B7: E339V: additional mutation in SEQ ID No: 17 (protein)
chain: B1 chain with S117V, M279F, A334K, E339V, Q432A
modifications: Mutated Zea mays Bx9 protein sequence
B8: L215D: additional mutation in SEQ ID No: 17 (protein)
chain: B1 chain with S117V, L215D, M279F, A334K, Q432A
modifications: Mutated Zea mays Bx9 protein sequence
B9: I216Y: additional mutation in SEQ ID No: 17 (protein)
chain: B1 chain with S117V, I216Y, M279F, A334K, Q432A
modifications: Mutated Zea mays Bx9 protein sequence
B10: A234C: additional mutation in SEQ ID No: 17 (protein)
chain: B1 chain with S117V, A234C, M279F, A334K, Q432A
modifications: Mutated Zea mays Bx9 protein sequence
B11: P284F: additional mutation in SEQ ID No: 17 (protein)
chain: B1 chain with S117V, M279F, P284F, A334K, Q432A
modifications: Mutated Zea mays Bx9 protein sequence
B12: A432H: bx9 SEQ ID NO:1 mutant (protein)
chain: B1 chain with Q432H
modifications: Zea mays
B13: A432N: bx9 SEQ ID NO:1 mutant (protein)
chain: B1 chain with Q432N
modifications: Zea mays
B14: A432V: bx9 SEQ ID NO:1 mutant (protein)
chain: B1 chain with Q432V
modifications: Zea mays

Test: UDP luminescence plate assay of E. coli extracts, mutants of SEQ ID No: 1, 2 mM metribuzin
Format: biochemical, Zea mays
Details: 2 mM metribuzin
Outline: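 Extracts of E. coli BL21 DE3 expressing C-terminally His-tagged SEQ ID NO:1 variants incubated with 2 mM metribuzin; UDP formed read by UDP-Glo luminescence against a UDP standard curve, with optional 95 C stop. Mutants ranked by metribuzin/DMSO signal ratio and signal increase over wild-type bx9.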
For B1, the “factor of increased signal relative to the bx9 w/t control signal (first parentheses)” value was 6 and the “ratio of activity with metribuzin relative to activity with DMSO (second parentheses)” value was 1.35. For B2, the “factor of increased signal relative to the bx9 w/t control signal (first parentheses)” value was 3.5 and the “ratio of activity with metribuzin relative to activity with DMSO (second parentheses)” value was 1.35.

Test: UDP luminescence plate assay of E. coli extracts, mutants within SEQ ID No: 17, 2 mM metribuzin
Format: biochemical, Zea mays
Details: 2 mM metribuzin vs DMSO control, same mutant
Experimental: Activities observed with metribuzin were generally lower in magnitude than seen with herbicide V in the previous examples. For example, in one plate assay run with 2 mM metribuzin using 5 ul of diluted extract of plate-grown BL21DE3 cells expressing w/t bx9 and assayed for 40 minutes (as described in Example 2) the UDP-Glo luminescence signal was ˜3.4 E6 as compared with ˜2.3E6 in the DMSO control and ˜1.7E6 in the H24A null mutant control. […] It was therefore important to assess potential improvements in the metribuzin activity of the various mutants relative to the wild type bx9 enzyme based not only on the H24A null activity control but also based upon controls with DMSO in place of metribuzin acceptor substrate. In some plate assays (using more dilute extracts) the metribuzin signals from the w/t enzyme was the same or barely greater than the DMSO control. Additionally, some mutations gave an increase in the ‘background’ UDP-glucose hydrolysis activity with just DMSO present that was the same or similar to the magnitude of the increase in signal seen with metribuzin. In these instances it is therefore uncertain from just this UDP-Glo assay method whether the specific metribuzin signal (glucosylation of metribuzin) is improved or not i.e. the signal seen with metribuzin may or may not all or to a large part be attributable to increased background hydrolysis). […] Thus the ratio of the metribuzin to DMSO signal as well as the increase in signal relative to the w/t bx9 is used to help distinguish those mutations most likely to offer the highest activity to metribuzin. A follow up assay monitored by, for example, LC MS is one method to distinguish these cases more quantitatively. The tables below summarise the results from two different sets of luminescence plate assays to detect single mutations giving improvements in the magnitude of the signal with metribuzin relative to w/t bx9 and/or the apparent specificity for metribuzin as measured by the deviation of the ratio of metribuzin to DMSO control activity from the bx9 w/t value of around unity.
A further separate screen was carried out to explore a library of additional mutations at various positions within the context of SEQ ID No: 17 for improved metribuzin activity. These were assayed, assessed and scored as above. […] These were S75K (2.5)(1.25), A236G (4.0)(1.15), A433V (3.3)(9.0) and R449C (1.8)(1.2).
A yet further and more comprehensive screen was carried out to explore saturation mutagenesis at all remaining amino acid positions within the context of SEQ ID No:17 for improved metribuzin activity. Again these were assayed, assessed and scored as above and the results of (out of the thousands screened) of the subset that were of interest are summarized in Table 16.
In the case of B1, the “RATIO of the metribuzin signal to the DMSO signal” value (“RATIO of the metribuzin signal” below) is reported as 1.20. With B3 the “RATIO of the metribuzin signal” value was 1.53. For B2, the “RATIO of the metribuzin signal” value was 1.17. With B4 the “RATIO of the metribuzin signal” value was 1.29.

Same assay, conditions: 2 mM metribuzin; additional mutation in SEQ ID No: 17
In the case of B5, the “metribuzin signal relative to the SEQ ID No:17 control (first parentheses)” value is reported as 3.7 and the “ratio of metribuzin to DMSO signal (second parentheses)” value (“ratio of metribuzin to DMSO signal” below) is reported as 1.34. In the case of B6, the “metribuzin signal relative to the SEQ ID No:17 control (first parentheses)” value is reported as 2.3 and the “ratio of metribuzin to DMSO signal” value is reported as 1.35. In the case of B4, the “metribuzin signal relative to the SEQ ID No:17 control (first parentheses)” value is reported as 1.9 and the “ratio of metribuzin to DMSO signal” value is reported as 1.30. With B7 the “metribuzin signal relative to the SEQ ID No:17 control (first parentheses)” value was 2.6 and the “ratio of metribuzin to DMSO signal” value was 1.51. In the case of B8, the “metribuzin signal relative to the SEQ ID No:17 control (first parentheses)” value is reported as 3.1 and the “ratio of metribuzin to DMSO signal” value is reported as 1.34. With B9 the “metribuzin signal relative to the SEQ ID No:17 control (first parentheses)” value was 3.5 and the “ratio of metribuzin to DMSO signal” value was 1.33. With B10 the “metribuzin signal relative to the SEQ ID No:17 control (first parentheses)” value was 3.0 and the “ratio of metribuzin to DMSO signal” value was 1.29. With B11 the “metribuzin signal relative to the SEQ ID No:17 control (first parentheses)” value was 1.8 and the “ratio of metribuzin to DMSO signal” value was 1.29.

Same assay, conditions: 2 mM metribuzin; relative to SEQ ID No: 17 control
For B1, the “SIGNAL: metribuzin signal of mutant divided by the signal of the SEQ ID No. 17 control” value was 4.09. In the case of B3, the “SIGNAL: metribuzin signal of mutant divided by the signal of the SEQ ID No. 17 control” value is reported as 2.01. For B5, the “SIGNAL: metribuzin signal of mutant divided by the signal of the SEQ ID No. 17 control” value was 3.66. For B12, the “SIGNAL: metribuzin signal of mutant divided by the signal of the SEQ ID No. 17 control” value was 3.44. With B6 the “SIGNAL: metribuzin signal of mutant divided by the signal of the SEQ ID No. 17 control” value was 2.30. For B13, the “SIGNAL: metribuzin signal of mutant divided by the signal of the SEQ ID No. 17 control” value was 4.21. For B14, the “SIGNAL: metribuzin signal of mutant divided by the signal of the SEQ ID No. 17 control” value was 3.88. For B2, the “SIGNAL: metribuzin signal of mutant divided by the signal of the SEQ ID No. 17 control” value was 3.57. In the case of B4, the “SIGNAL: metribuzin signal of mutant divided by the signal of the SEQ ID No. 17 control” value is reported as 1.91. For B7, the “SIGNAL: metribuzin signal of mutant divided by the signal of the SEQ ID No. 17 control” value was 2.64. With B8 the “SIGNAL: metribuzin signal of mutant divided by the signal of the SEQ ID No. 17 control” value was 3.14. With B9 the “SIGNAL: metribuzin signal of mutant divided by the signal of the SEQ ID No. 17 control” value was 3.50. For B10, the “SIGNAL: metribuzin signal of mutant divided by the signal of the SEQ ID No. 17 control” value was 2.96. With B11 the “SIGNAL: metribuzin signal of mutant divided by the signal of the SEQ ID No. 17 control” value was 1.81.

Same assay, conditions: additional mutations within SEQ ID No: 17; DMSO in place of metribuzin
With B1 the “luminescence signal in the DMSO control” value was 6.22E+06. In the case of B3, the “luminescence signal in the DMSO control” value is reported as 2.39E+06. For B5, the “luminescence signal in the DMSO control” value was 4.99E+06. For B12, the “luminescence signal in the DMSO control” value was 6.08E+06. In the case of B6, the “luminescence signal in the DMSO control” value is reported as 3.10E+06. With B13 the “luminescence signal in the DMSO control” value was 6.13E+06. In the case of B14, the “luminescence signal in the DMSO control” value is reported as 5.69E+06. With B2 the “luminescence signal in the DMSO control” value was 5.56E+06. For B4, the “luminescence signal in the DMSO control” value was 2.69E+06. In the case of B7, the “luminescence signal in the DMSO control” value is reported as 3.18E+06. In the case of B8, the “luminescence signal in the DMSO control” value is reported as 4.26E+06. With B9 the “luminescence signal in the DMSO control” value was 4.79E+06. For B10, the “luminescence signal in the DMSO control” value was 4.20E+06. For B11, the “luminescence signal in the DMSO control” value was 2.55E+06.

Same assay, conditions: additional mutations within SEQ ID No: 17; control = SEQ ID No: 17; 2 mM metribuzin
For B1, the “luminescence signal observed with 2 mM metribuzin” value (from here on “luminescence signal observed”) was 7.46E+06. For B3, the “luminescence signal observed” value was 3.66E+06. In the case of B5, the “luminescence signal observed” value is reported as 6.67E+06. With B12 the “luminescence signal observed” value was 6.28E+06. In the case of B6, the “luminescence signal observed” value is reported as 4.20E+06. With B13 the “luminescence signal observed” value was 7.67E+06. With B14 the “luminescence signal observed” value was 7.07E+06. With B2 the “luminescence signal observed” value was 6.51E+06. With B4 the “luminescence signal observed” value was 3.48E+06. With B7 the “luminescence signal observed” value was 4.81E+06. With B8 the “luminescence signal observed” value was 5.72E+06. With B9 the “luminescence signal observed” value was 6.38E+06. For B10, the “luminescence signal observed” value was 5.40E+06. With B11 the “luminescence signal observed” value was 3.30E+06.
